Experimental data published in patent US20150018530A1.

Tests used:
[1] = biological target: EGF receptor on A431 cells (UniProt P00533); assay: flow cytometry on A431 cells; concentration of mAb108 used in the competition assay
[2] = biological target: EGF receptor on A431 cells (UniProt P00533); assay: Flow cytometry binding curve of the Fab on A431 cells (binding conditions 'as described previously'); y axis Median rises from about 20 to about 790
[3] = biological target: EGF receptor on A431 cells (UniProt P00533); assay: competition flow cytometry on A431 cells; scFv pre-bound, mAb108 at 7.5 nM as competitor, APC anti-mouse detection
[4] = biological target: EGF receptor on A431 cells (UniProt P00533); assay: Competition flow cytometry on A431 cells: cells incubated with the scFv at varied concentration and washed, then mAb108 at 7.5 nM, detected with APC-labelled anti-mouse antibody; y axis Median
[5] = biological target: EGF receptor on A431 cells (UniProt P00533); assay: flow cytometry on A431 cells; binding conditions 'as described previously' (competition with mAb108)

wild type scFv-108 (periplasmic), sequence (scFv): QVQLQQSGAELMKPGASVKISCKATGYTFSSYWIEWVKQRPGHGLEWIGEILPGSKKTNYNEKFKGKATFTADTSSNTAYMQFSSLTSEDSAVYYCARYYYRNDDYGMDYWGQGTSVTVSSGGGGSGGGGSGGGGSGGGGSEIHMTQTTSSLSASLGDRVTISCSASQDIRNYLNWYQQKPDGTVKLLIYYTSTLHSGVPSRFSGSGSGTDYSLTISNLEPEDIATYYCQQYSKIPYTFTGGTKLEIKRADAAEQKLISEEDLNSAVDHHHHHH

Substance | IC50 relative to the wild type scFv [3] [x] | other results
EGFR-specific monoclonal antibody mAb108 (ATCC #HB 9764) | – | EC80 [1]: 7.5 nM
Fab-108 Thr204 pAF (from UniProt P01834 1-107) | – | EC50 [2]: 6.2 nM
scFv-108 His144pAF | 2.6 | –
scFv-108 Leu156pAF | 1.8 | –
scFv-108 Ser131pAF | 1.3 | –
scFv-108 Ser136pAF | 1.6 | IC50 [4]: 13.1 nM
scFv-108 Ser136pAF-5K PEG | 6.3 | IC50 [4]: 51 nM
scFv-108 Ser193pAF | 1.8 | –
wild type Fab-108 (from UniProt P01834 1-107) | – | EC50 [5]: 3 nM
wild type scFv-108 (periplasmic) | – | IC50 [3]: 8.1 nM
